Experimental data taken from US20220096608.
Numbering of substitutions follows the chain as printed. Numbers in names are those of the source.

T1: α2-antiplasmin, P08697
T1 chain: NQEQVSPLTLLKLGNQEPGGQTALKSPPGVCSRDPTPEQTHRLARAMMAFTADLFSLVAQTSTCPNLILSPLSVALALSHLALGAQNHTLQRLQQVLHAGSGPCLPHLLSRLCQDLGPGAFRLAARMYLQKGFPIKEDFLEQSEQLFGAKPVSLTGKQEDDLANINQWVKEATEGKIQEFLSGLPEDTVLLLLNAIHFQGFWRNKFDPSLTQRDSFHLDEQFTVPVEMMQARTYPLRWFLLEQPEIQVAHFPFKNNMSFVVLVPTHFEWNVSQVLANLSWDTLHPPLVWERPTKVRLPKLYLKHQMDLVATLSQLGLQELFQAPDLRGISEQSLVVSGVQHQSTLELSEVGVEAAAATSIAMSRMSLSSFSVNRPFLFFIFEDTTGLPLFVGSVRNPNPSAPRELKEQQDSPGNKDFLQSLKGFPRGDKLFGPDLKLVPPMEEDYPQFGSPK

B1: Mono-PEGylated Micro-plasmin variant (40 kDa PEG) V82C Catalytic Domain (SEQ ID NO. 4) (protein)
chain: APSFDCGKPQVEPKKCPGRVVGGCVAHPHSWPWQVSLRTRFGMHFCGGTLISPEWVLTAAHCLEKSPRPSSYKVILGAHQECNLEPHVQEIEVSRLFLEPTRKDIALLKLSSPAVITDKVIPACLPSPNYVVADRTECFITGWGETQGTFGAGLLKEAQLPVIENKVCNRYEFLNGRVQSTELCAGHLAGGTDSCQGDSGGPLVCFEKDKYILQGVTSWGLGCARPNKPGVYVRVSRFVTWIEGVMRNN
B2: Mono-PEGylated Micro-plasmin variant (20 kDa PEG) H87C Catalytic Domain (SEQ ID NO. 9) (protein)
chain: B1 chain with C82V, H87C
B3: Mono-PEGylated Micro-plasmin variant (40 kDa PEG) H87C Catalytic Domain (SEQ ID NO. 9) (protein)
chain: B1 chain with C82V, H87C
B4: Bi-PEGylated Micro-plasmin variant (20 kDa-20 kDa PEG) V82C-H87C Catalytic Domain (SEQ ID NO. 12) (protein)
chain: B1 chain with H87C
B5: Wild-type Micro-plasmin (SEQ ID NO. 2) (protein)
chain: B1 chain with C82V
B6: Mono-PEGylated Micro-plasmin variant (20 kDa PEG) V82C Catalytic Domain (SEQ ID NO. 4) (protein)
chain: B1 chain

Target: T1, α2-antiplasmin, P08697

Protein	In vitro Half-life (of inactivation by α2-antiplasmin)
B1	>7 min
B2	6 to 7 min
B3	>7 min
B4	>10 min
B5	>5 min
B6	6 to 7 min
